In US7202089B2, “Early diagnosis of stroke” (priority 2001, dated 2007):

Assay: Fatty acid binding of fluorescently labeled I-FABP probes (fluorescence ratio)
Conditions: FFA binding; ADIFAB2 compared with ADIFAB
Description: In a preferred embodiment, a fluorescently-labeled FABP is acrylodan-derived recombinant rat intestinal fatty acid binding protein (referred to as ADIFAB). Derivatization with acrylodan was performed using known methods substantially as previously described (U.S. Pat. No. 5,470,714 & Richieri, G. V, et al., J. Biol. Chem., (1992) […]: 23495–23501), and ADIFAB is commercially available (FFA Sciences LLC, San Diego, Calif. ). Concentrations of FFAu can be determined by the binding of the FFAu to the fluorescently labeled fatty acid binding protein (FABP). […] The concentration of FFAu can be determined from the fluorescence difference. […] It will be understood that those skilled in the art can readily substitute other fluorescently-labeled FABP in the disclosed assay.
The assay for determination of FFAu levels in aqueous samples measures the intensity of a shift in fluorescence from a first wavelength, at which the derivatized FABP fluoresces when no FFA is bound, to a second wavelength, at which the derivatized FABP fluoresces when a molecule of FFA is bound, and the concentration of FFAu is then determined from the ratio (“R” value) of the two intensities of fluorescence wavelengths as described in U.S. Pat. No. 5,470,714 and Richieri, et al. (1995) J. Lipid Research, vol. […] Briefly, the ratio is calculated using the following formula: […]

B1: ADIFAB2: acrylodan-derivatized rat intestinal fatty acid binding protein (I-FABP) with substitution of Ala for Leu at position 72 (protein, UniProt P02693 2-132, looked up, variant L72A)
Fatty acid-binding protein, …: AFDGTWKVDRNENYEKFMEKMGINVVKRKLGAHDNLKLTITQEGNKFTVKESSNFRNIDVVFELGVDFAYSAADGTELTGTWTMEGNKLVGKFKRVDNGKELIAVREISGNELIQTYTYEGVEAKRIFKKE
modifications: acrylodan label
binding affinities relative to ADIFAB: about 10 fold
